Results from article PMC5854407 (Nature, 2017).
Each block holds one molecule with its values, some of them ahead of it.

Columns and labels:
hTRPV6 = biological target: T1, hTRPV6 (Homo sapiens, UniProt Q9H1D0, R510E); assay: Fura-2 AM ratiometric Ca2+ uptake in HEK cells; assay type: cell-based
T1 sequence (Q9H1D0 41-765 R510E): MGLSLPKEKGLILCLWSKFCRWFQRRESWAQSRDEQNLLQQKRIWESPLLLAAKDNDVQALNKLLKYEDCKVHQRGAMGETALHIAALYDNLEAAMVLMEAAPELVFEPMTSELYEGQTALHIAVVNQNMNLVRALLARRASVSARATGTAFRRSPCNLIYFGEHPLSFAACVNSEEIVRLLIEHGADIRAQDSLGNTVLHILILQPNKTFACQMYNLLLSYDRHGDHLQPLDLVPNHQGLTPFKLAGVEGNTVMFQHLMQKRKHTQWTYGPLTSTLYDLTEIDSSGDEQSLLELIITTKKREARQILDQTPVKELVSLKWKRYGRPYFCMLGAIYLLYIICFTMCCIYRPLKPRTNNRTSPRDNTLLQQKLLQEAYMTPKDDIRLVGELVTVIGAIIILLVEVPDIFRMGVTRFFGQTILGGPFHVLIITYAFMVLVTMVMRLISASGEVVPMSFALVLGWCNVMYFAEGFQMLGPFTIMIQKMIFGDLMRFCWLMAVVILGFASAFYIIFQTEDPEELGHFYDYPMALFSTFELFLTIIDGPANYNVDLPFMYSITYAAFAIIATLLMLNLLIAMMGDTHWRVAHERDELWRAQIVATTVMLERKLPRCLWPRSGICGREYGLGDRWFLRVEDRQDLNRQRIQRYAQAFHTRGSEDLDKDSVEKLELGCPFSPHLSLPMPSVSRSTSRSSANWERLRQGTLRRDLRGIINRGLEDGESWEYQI

hTRPV6-R470E (human) = assay: cryo-EM structure
[1] = biological target: rTRPV6* (rat TRPV6 construct previously used for crystallographic studies) (rat); assay: cryo-EM structure

IC50 (hTRPV6): 85 ± 5 µM
Molecule: NCCOB(c1ccccc1)c1ccccc1 [2-APB]

stoichiometry N (hTRPV6-R470E (human)): 4
Molecule: hTRPV6-R470E (natural protein)

stoichiometry N [1]: 4
Molecule: rTRPV6* (rat TRPV6 construct previously used for crystallographic studies) (natural protein)
